Data published in publication PMC5714209 (Nucleic Acids Research, 2017).

Target: the molecule itself
Assay: SEC

B1: full-length APOBEC3B (enzyme)
chain: not shown
- stoichiometry N: 4
